# Assay results published in article PMC13056932 (Nature Communications, 2026).
# Tests used:
# [1] = target: large tegument protein VP1/2 (ORF22) (Varicella-zoster virus (parental Oka strain)) (UniProt P09278); experiment: cryo-EM structure
# cryo-EM structure = target: the molecule itself; experiment: cryo-EM structure
Molecule,stoichiometry N [1],stoichiometry N (cryo-EM structure)
"large tegument protein VP1/2 (ORF22), P09278 1-2763",2,
"capsid triplex protein 2 (TRX2; ORF41) (natural protein, UniProt P09291 1-316, looked up) MAMPFEIEVLLPGELSPAETSALQKCEGKIITFSTLRHRASLVDIALSSYYINGAPPDTLSLLEAYRMRFAAVITRVIPGKLLAHAIGVGTPTPGLFIQNTSPVDLCNGDYICLLPPVFGSADSIRLDSVGLEIVFPLTIPQTLMREIIAKVVARAVERTAAGAQILPHEVLRGADVICYNGRRYELETNLQHRDGSDAAIRTLVLNLMFSINEGCLLLLALIPTLLVQGAHDGYVNLLIQTANCVRETGQLINIPPMPRIQDGHRRFPIYETISSWISTSSRLGDTLGTRAILRVCVFDGPSTVHPGDRTAVIQV",,2
"capsid vertex-specific component 2 (CVC2; ORF34) (natural protein, UniProt P09287 1-579, looked up) MTARYGFGSISFPNKCGIFLSTTKNFIAPNFPIHYWTAPAFELRGRMNPDLEKNTLTLKNAAAVAALDNLRGETITLPTEIDRRLKPLEEQLTRMAKVLDSLETAAAEAEEADAQSEECTRTEIIRNESIHPEVQIAKNDAPLQYDTNFQVDFITLVYLGRARGNNSPGIVFGPWYRTLQERLVLDRPVAARGVDCKDGRISRTFMNTTVTCLQSAGRMYVGDRAYSAFECAVLCLYLMYRTSNSVHEPQVSSFGNLIEHLPEYTETFVNYMTTHENKNSYQFCYDRLPRDQFHARGGRYDQGALTSHSVMDALIRLQVLPPAPGQFNPGVNDIIDRNHTAYVDKIQQAAAAYLERAQNVFLMEDQTLLRLTIDTITALLLLRRLLWNGNVYGDKLKNNFQLGLIVSEATGTPTNNVILRGATGFDGKFKSGNNNFQFLCERYIAPLYTLNRTTELTEMFPGLVALCLDAHTQLSRGSLGRTVIDISSGQYQDRLISLIALELEHRRQNVTSLPIAAVVSIHDSVMLQYERGLGMLMHQPRVRAALEESRRLAQFNVNSDYDLLYFVCLGVIPQFASTP",,2
